Biological target: Keap1–mCherry (Kelch-like ECH associated protein 1 fused to mCherry) (UniProt Q9Z2X8)
Assay: FRET or BRET

Chain of UniProt Q9Z2X8 (Q9Z2X8 whole entry, the tested form may be a part): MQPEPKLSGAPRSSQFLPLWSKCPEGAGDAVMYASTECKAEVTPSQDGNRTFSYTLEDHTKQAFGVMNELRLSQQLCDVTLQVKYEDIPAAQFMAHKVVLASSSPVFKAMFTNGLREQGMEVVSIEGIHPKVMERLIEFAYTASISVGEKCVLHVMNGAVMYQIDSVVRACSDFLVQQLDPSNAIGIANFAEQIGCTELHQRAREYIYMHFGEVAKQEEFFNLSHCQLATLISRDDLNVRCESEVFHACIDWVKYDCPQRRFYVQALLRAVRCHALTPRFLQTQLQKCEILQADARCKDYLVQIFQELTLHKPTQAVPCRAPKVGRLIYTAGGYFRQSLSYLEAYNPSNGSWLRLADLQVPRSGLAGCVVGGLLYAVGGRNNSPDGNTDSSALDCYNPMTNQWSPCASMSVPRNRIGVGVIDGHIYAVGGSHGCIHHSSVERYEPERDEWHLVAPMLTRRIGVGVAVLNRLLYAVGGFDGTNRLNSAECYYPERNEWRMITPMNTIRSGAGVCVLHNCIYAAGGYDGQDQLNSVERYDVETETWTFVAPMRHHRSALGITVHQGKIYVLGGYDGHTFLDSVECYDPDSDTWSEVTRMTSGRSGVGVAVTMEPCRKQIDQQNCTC

Row | Substance | E-FRET (major peak) [%]
1 | EGFP–Nrf2 double ETGE (from UniProt Q60795 1-597) (natural protein) | 21
2 | EGFP–Nrf2ΔDLG (from UniProt Q60795 1-597) (natural protein) | 13

— PMC4613514
